Assay results reported in patent US20250108122A1 (SHANGHAI MABGEN BIOTECH, published 2025).

T1: human CD79b protein on DoHH2 and WSU-DLCL2 cells (human, UniProt P40259 29-229)
T1 sequence (looked up): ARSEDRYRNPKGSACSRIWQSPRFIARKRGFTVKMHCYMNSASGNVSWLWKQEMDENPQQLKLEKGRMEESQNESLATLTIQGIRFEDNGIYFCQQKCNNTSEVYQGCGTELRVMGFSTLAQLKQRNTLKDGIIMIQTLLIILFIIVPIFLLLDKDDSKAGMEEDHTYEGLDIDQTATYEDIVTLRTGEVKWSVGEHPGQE

T2: human CD79b protein (human, UniProt P40259 29-159, limits assumed)
T2 construct: Recombinant protein used in the Biacore assay
T2 sequence (looked up): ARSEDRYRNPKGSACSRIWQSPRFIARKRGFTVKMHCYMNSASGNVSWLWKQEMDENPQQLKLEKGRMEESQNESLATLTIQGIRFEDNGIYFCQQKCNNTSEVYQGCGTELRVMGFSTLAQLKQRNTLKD

B1: ADC-6 (hAb015-10-cys-D, with a DAR value of about 4) (antibody, human IgG1, kappa, V domains shown)
VH: EVQLVQSGAEVKKPGSSVKVSCKASGSSFSSYGINWVKQAPGQGLEWIGEIFPRSGNTYYNEKFEGRATLTADKSTSTAYMELRSLRSEDTAVYYCAKGDLGDFDYWGQGTTVTVSS
VL: DFVMTQTPLSLPVTPGEPASISCRSSQSIVHSDGNTYFEWYLQKPGQSPKLLIYKVSNRFSGVPDRFSGSGSGTDFTLKISRVEAEDVGVYYCFQGSHVPWTFGGGTKVEIKR
modifications: compound D (exatecan derivative linker-drug, Topo I inhibitor) coupled to cysteines after TCEP reduction; positions not given; mean n=3.46 per antibody (RP-HPLC)
B2: hAb015-10 (antibody, human IgG1, kappa, V domains shown)
VH: B1 VH
VL: B1 VL
notes: Humanized form of the mouse hybridoma antibody mAb015; also called humanized anti-CD79b antibody hAb015-10; naked antibody
B3: ADC-5 (HAB015-10-cys-D, with a DAR value of about 2) (antibody, human IgG1, kappa, V domains shown)
VH: B1 VH
VL: B1 VL
modifications: compound D (exatecan derivative linker-drug, Topo I inhibitor) coupled to cysteines after TCEP reduction; positions not given; mean n=1.81 per antibody (RP-HPLC)
notes: Antibody-drug conjugate of hAb015-10 with compound D
B4: ADC-7 (hAb015-10-cys-D, with a DAR value of about 6) (antibody, human IgG1, kappa, V domains shown)
VH: B1 VH
VL: B1 VL
modifications: compound D (exatecan derivative linker-drug, Topo I inhibitor) coupled to cysteines after TCEP reduction; positions not given; mean n=5.84 per antibody (RP-HPLC)
B5: ADC-3 (hAb015-10-cys-MC-vc-PAB-MMAE) (antibody, human IgG1, kappa, V domains shown)
VH: B1 VH
VL: B1 VL
modifications: MC-vc-PAB-MMAE coupled to cysteines after TCEP reduction; positions not given; mean n=3.09 per antibody (CE-SDS)
B6: ADC-8 (SN8-cys-MC-PAB-MMAE, with a DAR value of about 4) (antibody, human IgG1, kappa, V domains shown)
VH: EVQLVESGGGLVQPGGSLRLSCAASGYTFSSYWIEWVRQAPGKGLEWIGEILPGGGDTNYNEIFKGRATFSADTSKNTAYLQMNSLRAEDTAVYYCTRRVPIRLDYWGQGTLVTVSS
VL: DIQLTQSPSSLSASVGDRVTITCKASQSVDYEGDSFLNWYQQKPGKAPKLLIYAASNLESGVPSRFSGSGSGTDFTLTISSLQPEDFATYYCQQSNEDPLTFGQGTKVEIKR
modifications: MC-VC-PAB-MMAE coupled to cysteines after TCEP reduction; positions not given; mean n=3.59 per antibody (CE-SDS)

How the values were obtained:
[1] = biological target: T1, human CD79b protein on DoHH2 and …; test: cell-based or functional assay
human CD79b protein = biological target: T2, human CD79b protein; test: Biacore affinity assay, 1:1 Langmuir fit; column head prints EC50 (nM)
Method: Data fitting was performed with a (1:1) Langmuir model using BIAevaluation version 4.1, GE software to obtain affinity values.

| Binder | IC50 of in vitro proliferation inhibition (MTT, 72 h), DoHH2 cells [1] [mg/L] | IC50 of in vitro proliferation inhibition (MTT, 72 h), WSU-DLCL2 cells [1] [mg/L] | KD (binding affinity) (human CD79b protein) [nM] |
| --- | --- | --- | --- |
| B1 | 0.0033 | 0.0542 | – |
| B2 | – | – | 0.38 |
| B3 | 0.0085 | 0.0683 | – |
| B4 | 0.002 | 0.0534 | – |
| B5 | 0.0033 | 0.0059 | – |
| B6 | 0.0806 | 0.117 | – |
